Source: article PMC5427921, “PRL3 phosphatase active site is required for binding the putative magnesium transporter CNNM3” (Scientific Reports, 2017)

Target: T1, Human phosphatase PRL3, amino acids 1–169 (wild type) (human, UniProt O75365 1-169)
T1 construct: N-terminal extension Gly-Ser-His left after thrombin cleavage of the His tag; phosphatase of regenerating liver 3 (PRL3), human, amino acids 1-169; also called PRL3-wt; wild-type PRL3; not shown: His6, N-terminal, cleaved
Test: ITC; syringe 160 μM PRL2 or PRL3, cell 16 μM CNNM3 CBS-pair domain as a GST fusion; 22 °C; 30 injections of 10 μl; fitted to a single set of identical sites
Conditions: both partners purified

T1 sequence (O75365 other isoform, or with tags, fused parts or gaps): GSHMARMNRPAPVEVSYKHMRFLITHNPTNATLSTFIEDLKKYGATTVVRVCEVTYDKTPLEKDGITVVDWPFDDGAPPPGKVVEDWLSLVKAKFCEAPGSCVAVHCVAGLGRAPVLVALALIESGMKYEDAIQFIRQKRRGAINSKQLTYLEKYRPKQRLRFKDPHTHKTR

B1: CNNM3 CBS-pair domain as a GST fusion (domain or fragment, human)
chain: LRCRTVEDVLTPLEDCFMLDASTVLDFGVLASIMQSGHTRIPVYEEERSNIVDMLYLKDLAFVDPEDCTPLSTITRFYNHPLHFVFNDTKLDAVLEEFKRGKSHLAIVQKVNNEGEGDPFYEVLGLVTLEDVIEEIIRSEILDE
notes: CBS-pair domain of human CNNM3; also called CBS-pair (Bateman) domain of CNNM3
Question: With B1 as the binder, how does the Kd read?
Answer: 11 nM
